According to paper PMC10439915, “Development of an interfering peptide M1-20 with potent anti-cancer effects by targeting FOXM1” (Cell Death & Disease, 2023):
One block for each molecule: values may come before it. Non-standard residues stand in square brackets, D forms with d. No end group written: not given here.

Experiments:
FOXM1_1-138 [1] = target: T1, FOXM1_1-138 (Homo sapiens, UniProt Q08050); assay: Microscale thermophoresis binding of peptide to GFP-labeled FOXM1_1-138; settings: MST, Monolith NT.115, peptide 0.030 to 1000 μM in PBS with 0.05% Tween-20, 25 °C, mean of three independent measurements
T1 construct: The cDNA of FOXM1(1-138aa) was PCR amplified from pCMV-FOXM1 plasmid; EGFP (C); His (pET-32a vector; Ni-Sepharose purification); made in house; host or cells: E. coli Rosetta/DE3
T1 sequence (Q08050 1-138 isoform Q08050-2): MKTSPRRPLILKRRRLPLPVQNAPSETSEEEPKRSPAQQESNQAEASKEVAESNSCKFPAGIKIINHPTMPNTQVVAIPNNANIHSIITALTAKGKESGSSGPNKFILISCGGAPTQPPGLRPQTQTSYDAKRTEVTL
Procedure: Measurements were performed by Monolith NT.115 instrument (NanoTemper). The data were analyzed by MO. Affinity Analysis v2.3 NT software (NanoTemper) to determine interaction parameters. Details were described in the supplemental materials and methods.
Fig. 2 The screening of the FOXM1-interacting peptide M1-20. A The diagram of peptide array (P1-P9) in which peptides (20-mer) covering FOXM1_689-748 with a shifting window of five residues were conjugated to the cell-penetrating peptide TAT and produced by solid-phase peptide synthesis. […] Biotin and FOXM1 proteins in samples were detected by Western Blotting with certain antibodies. […] The absorbance at 450 nm and the relative cell viability in each well was calculated. […] GST-tag and Biotin-tag were detected by Western Blotting with certain antibodies. […] E The curve represented the quantification of binding affinity between GFP-labeled FOXM1_1-138 and P5 or P5mut by Microscale Thermophoresis (MST, Monolith NT.115, NanoTemper). Data points indicated the fraction of FOXM1_1-138-bound peptide (ΔNormal/Amplitude) at different concentrations, and curves indicated the calculated fits. […] F The biotin signals indicated the peptide stability of P5 and M1-20 in HEK293T cell lysates analyzed by Western Blotting. The levels of peptide were quantified by Image J software and graphed with GraphPad Prism 9 (n = 3). […]

endogenous FOXM1 = target: T2, endogenous FOXM1 (Homo sapiens, UniProt Q08050); assay: Biotin-peptide pull-down of endogenous FOXM1 from MDA-MB-231 cell lysates; assay type: binding; settings: biotin-labeled peptide, MDA-MB-231 cell lysates (500 μg), Streptavidin Agarose Resin, Western Blotting
T2 construct: endogenous in cells; host or cells: MDA-MB-231 cell lysates
T2 sequence (Q08050 1-763): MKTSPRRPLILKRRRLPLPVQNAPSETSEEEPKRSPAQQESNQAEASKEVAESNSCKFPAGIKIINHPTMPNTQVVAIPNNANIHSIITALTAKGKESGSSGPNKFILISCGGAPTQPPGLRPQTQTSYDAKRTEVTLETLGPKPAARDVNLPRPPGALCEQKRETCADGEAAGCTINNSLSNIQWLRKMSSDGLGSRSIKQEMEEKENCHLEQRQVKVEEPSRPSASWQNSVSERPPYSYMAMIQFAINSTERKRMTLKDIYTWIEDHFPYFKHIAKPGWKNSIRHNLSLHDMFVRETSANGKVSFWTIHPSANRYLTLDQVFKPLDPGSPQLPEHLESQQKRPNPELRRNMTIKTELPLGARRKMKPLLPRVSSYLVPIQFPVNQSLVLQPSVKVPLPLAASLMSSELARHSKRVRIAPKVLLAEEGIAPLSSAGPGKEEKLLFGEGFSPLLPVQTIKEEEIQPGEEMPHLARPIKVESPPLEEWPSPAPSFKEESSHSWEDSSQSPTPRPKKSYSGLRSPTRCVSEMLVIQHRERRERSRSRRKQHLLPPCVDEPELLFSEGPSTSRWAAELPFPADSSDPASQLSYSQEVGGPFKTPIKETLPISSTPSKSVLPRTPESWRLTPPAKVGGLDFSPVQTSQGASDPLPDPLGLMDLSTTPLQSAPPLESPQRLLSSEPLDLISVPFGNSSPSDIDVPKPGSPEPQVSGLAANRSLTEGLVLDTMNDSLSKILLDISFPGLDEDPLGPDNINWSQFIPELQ
Procedure: (§1) Fig. 2 The screening of the FOXM1-interacting peptide M1-20. A The diagram of peptide array (P1-P9) in which peptides (20-mer) covering FOXM1_689-748 with a shifting window of five residues were conjugated to the cell-penetrating peptide TAT and produced by solid-phase peptide synthesis. The P1-P9 peptides were biotin-labeled respectively and added in MDA-MB-231 cell lysates (500 μg) which were incubated with Streptavidin Agarose Resin to pull down biotin-peptide/protein complexes. Biotin and FOXM1 proteins in samples were detected by Western Blotting with certain antibodies. 10% of cell lysates (50 μg) were used as input controls. […] The absorbance at 450 nm and the relative cell viability in each well was calculated. […] GST-tag and Biotin-tag were detected by Western Blotting with certain antibodies. […] E The curve represented the quantification of binding affinity between GFP-labeled FOXM1_1-138 and P5 or P5mut by Microscale Thermophoresis (MST, Monolith NT.115, NanoTemper). Data points indicated the fraction of FOXM1_1-138-bound peptide (ΔNormal/Amplitude) at different concentrations, and curves indicated the calculated fits. […] F The biotin signals indicated the peptide stability of P5 and M1-20 in HEK293T cell lysates analyzed by Western Blotting. The levels of peptide were quantified by Image J software and graphed with GraphPad Prism 9 (n = 3). […]

MDA-MB-231 cells = assay: CCK-8 cell viability; assay type: cell-based, human; settings: 0, 10, 20, 40, 80, 160 µM, 36 h, n = 3
Procedure: as §1

FOXM1_1-138 [2] = target: T1, FOXM1_1-138; assay: Biotin-peptide pull-down of recombinant FOXM1_1-138; assay type: binding; settings: biotin-labeled peptide (10 μg), recombinant protein (50 μg), Streptavidin Agarose Resin
Procedure: as §1

[3] = target: T3, GFP-labeled FOXM1_(1-138) (human, UniProt Q08050-3 1-138); assay: MST; GFP-labeled FOXM1(1-138) with peptide at different concentrations; Monolith NT.115 (NanoTemper), MO.Affinity Analysis v2.3; three independent measurements; settings: both partners purified
T3 construct: The fluorescent partner of the MST; Details are in the supplemental materials and methods
T3 sequence (looked up): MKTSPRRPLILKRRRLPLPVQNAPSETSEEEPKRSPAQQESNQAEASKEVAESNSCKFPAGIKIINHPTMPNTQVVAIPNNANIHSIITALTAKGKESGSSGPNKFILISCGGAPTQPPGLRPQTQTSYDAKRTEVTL

His-FOXM1 = target: T4, His-FOXM1 (UniProt Q08050-2 1-748); assay: EMSA; plus M1-20 peptide (5 and 10 uM in legend; 0.5, 1 and 2 uM in Suppl. Methods); DNA binding not disrupted; 20 mM Tris-Cl pH 7.6, 50 mM KCl, 10% glycerol, 0.5 mM EDTA, 0.2 mM DTT, 30 min on ice; 4% native PAGE in 0.5x TBE; settings: protein: recombinant; tags: His; label: 5'-FAM on forward strand (hot); blunt
T4 sequence: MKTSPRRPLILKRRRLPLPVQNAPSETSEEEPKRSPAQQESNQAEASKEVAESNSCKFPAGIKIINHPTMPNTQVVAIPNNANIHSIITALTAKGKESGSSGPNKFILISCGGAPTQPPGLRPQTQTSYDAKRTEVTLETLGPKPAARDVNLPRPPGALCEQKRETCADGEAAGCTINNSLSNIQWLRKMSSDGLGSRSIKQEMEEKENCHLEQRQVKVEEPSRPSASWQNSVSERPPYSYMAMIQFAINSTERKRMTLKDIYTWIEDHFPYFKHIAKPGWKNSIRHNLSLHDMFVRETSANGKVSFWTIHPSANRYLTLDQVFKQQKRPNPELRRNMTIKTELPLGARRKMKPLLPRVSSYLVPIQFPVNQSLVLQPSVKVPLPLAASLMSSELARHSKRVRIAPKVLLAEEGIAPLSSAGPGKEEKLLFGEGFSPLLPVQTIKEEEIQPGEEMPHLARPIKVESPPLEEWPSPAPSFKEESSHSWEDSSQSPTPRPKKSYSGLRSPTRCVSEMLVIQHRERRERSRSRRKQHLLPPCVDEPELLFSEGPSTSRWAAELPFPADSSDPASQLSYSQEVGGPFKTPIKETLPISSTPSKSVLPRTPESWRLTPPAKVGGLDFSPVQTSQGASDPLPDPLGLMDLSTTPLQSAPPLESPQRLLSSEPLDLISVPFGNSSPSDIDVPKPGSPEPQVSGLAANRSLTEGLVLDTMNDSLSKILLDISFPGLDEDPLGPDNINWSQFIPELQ

Kd [3]: 5.66 µM
Molecule: [dL]G[dP][dF][dS][dI][dD][dL][dL][dI][dK][dS][dL][dS][dD][dN][dM][dT][dD][dL] [M1-20]

Kd [3]: 386 µM
Molecule: [dL]G[dP][dF][dA][dA][dD][dA][dL][dI][dK][dS][dL][dS][dD][dN][dM][dT][dD][dL] [M1-20mut]

The next lines start with the molecule.

Molecule: P5mut: P5 with three residues mutated (L721A, I723A, S724A) (LDTMNDSLSKILADAAFPGL; also: conjugated to TAT cell-penetrating sequence (as parent P5))
KD, binding affinity to FOXM1_1-138 (FOXM1_1-138 [1]): unmeasurable

Molecule: P5: the sequence 709-728aa of FOXM1, 20-mer conjugated with TAT cell-penetrating sequence; natural parent peptide of M1-20
interaction with endogenous FOXM1 (pull-down) (endogenous FOXM1): interacted with endogenous FOXM1 with variable affinities
inhibition of MDA-MB-231 cells in the P1-P9 library screen (MDA-MB-231 cells): significantly inhibited MDA-MB-231 breast cancer cells in a dose-dependent manner
binding to recombinant FOXM1_1-138 (pull-down) (FOXM1_1-138 [2]): bind to recombinant GST-FOXM1_1-138 protein

Molecule: LDTMNDSLSKILLDISFPGL (also: conjugated to TAT cell-penetrating sequence) [P5]
Kd [3]: 43.1 µM

B1: FAM-labeled FOXM1 EMSA probe (dsDNA)
DNA 1: TTTGTTTATTTGTTTGTTTATTTG
DNA 2: CAAATAAACAAACAAATAAACAAA
binding result (His-FOXM1): binds
